Reference: patent US20220275083A1 (EUTILEX, published 2022)

Columns and labels:
[1] = biological target: T1, 4-1BB antigen (abclon) (UniProt Q07011 24-186); experiment: SPR, Biacore T200; variant captured on CM5, 4-1BB antigen injected
T1 construct: Bought antigen
Experimental: (§1) Affinity to 4-1BB was determined using the bispecific epitope binding protein variants diluted to 5 μg/ml and then fixed to CM5 chip (Cytiva, BR-1005-30) with human capture (Cytiva, Cat. No. BR-1008-39). The 4-1BB antigen (abclon) was injected at concentrations of 100, 50, 25, 12.5, 6.25, and 3.125 nM, the association time was set to 150 seconds, and the dissociation time was set to 240 seconds. Biacore T200 (cytiva) was used as the analysis equipment.

[2] = biological target: T2, PD-L1 antigen (SinoBiologics, Cat. No. 10084-H08H) (human, UniProt Q9NZQ7 19-238); experiment: SPR, Biacore T200; variant captured on CM5, PD-L1 antigen injected
T2 construct: Bought antigen; also called human PD-L1
Experimental: as §1
Affinity to PD-L1 was determined using the bispecific epitope binding protein variants diluted to 10 μg/ml and then fixed to CM5 chip with human capture.

T2 sequence (Q9NZQ7 19-238 limits assumed): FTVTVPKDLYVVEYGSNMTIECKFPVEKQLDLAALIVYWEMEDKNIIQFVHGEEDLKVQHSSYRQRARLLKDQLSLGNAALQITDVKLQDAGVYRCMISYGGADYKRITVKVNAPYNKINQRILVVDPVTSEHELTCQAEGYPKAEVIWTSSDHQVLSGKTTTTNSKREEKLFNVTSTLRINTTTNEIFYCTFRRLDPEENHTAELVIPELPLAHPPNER
T1 sequence (Q07011 24-186): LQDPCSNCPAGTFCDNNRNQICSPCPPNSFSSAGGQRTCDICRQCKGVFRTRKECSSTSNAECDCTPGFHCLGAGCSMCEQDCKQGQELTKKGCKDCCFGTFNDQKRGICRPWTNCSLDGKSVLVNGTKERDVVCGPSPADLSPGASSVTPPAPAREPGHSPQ

B1: bispecific epitope binding protein S06 (bispecific antibody)
chain: FLESPDRPWNAPTFSPALLLVAEGDNATFTCSFSNASESFHVVWHRESPSGQTDTLAAFPEDRSQPGQDHRFRVTRLPNGRDFHMSVVRAQRNDSGTYVCGVISLAPKIQIKESLRAELRVTERRAEVPTAHPSPSPRPAGQFQTLVVGGGGGSGGGGSGGGGSFLESPDRPWNAPTFSPALLLVAEGDNATFTCSFSNASESFHVVWHRESPSGQTDTLAAFPEDRSQPGQDHRFRVTRLPNGRDFHMSVVRAQRNDSGTYVCGVISLAPKIQIKESLRAELRVTERRAEVPTAHPSPSPRPAGQFQTLVVGASGGGGSGGGGSDKTHTCPPCPAPEAAGGPSVFLFPPKPKDTLMISRTPEVTCVVVDVSHEDPEVKFNWYVDGVEVHNAKTKPREEQYNSTYRVVSVLTVLHQDWLNGKEYKCAVSNKALPAPIEKTISKAKGQPREPQVYTLPPSREEMTKNQVSLTCLVKGFYPSDIAVEWESNGQPENNYKTTPPVLDSDGSFFLYSKLTVDKSRWQQGNVFSCSVMHEALHNHYTQKSLSLSPGGGGGSGGGGSQVQLVQSGAEVKKPGASVKLSCKASGYTFSSYWMHWVRQAPGQGLEWIGEINPGNGHTNYNEKFKSRVTMTRDTSTSTAYMELSSLRSEDTAVYYCARSFKTARAFAYWGQGTLVTVSSGSTSGSGKPGSGEGSTKGDIVMTQSPAFLSVTPGEKVTITCRASQTISDYLHWYQQKPDQAPKLLIKYASQSISGIPSRFSGSGSGTDFTFTISSLEAEDAATYYCQDGHSWPPTFGQGTKLEIK
notes: Anti-4-1BB 94kvt scFv x euPD-1 with hinge and engineered IgG1 Fc
- Kd [1]: 3.72 nM
- koff [1]: 0.000914 s⁻¹
- kon [1]: 245000 M⁻¹ s⁻¹
- Kd [2]: 2.22 nM
- koff [2]: 0.00186 s⁻¹
- kon [2]: 837000 M⁻¹ s⁻¹

B2: bispecific epitope binding protein S07 (bispecific antibody)
chain: FLESPDRPWNAPTFSPALLLVAEGDNATFTCSFSNASESFHVVWHRESPSGQTDTLAAFPEDRSQPGQDHRFRVTRLPNGRDFHMSVVRAQRNDSGTYVCGVISLAPKIQIKESLRAELRVTERRAEVPTAHPSPSPRPAGQFQTLVVGASGGGGSGGGGSDKTHTCPPCPAPEAAGGPSVFLFPPKPKDTLMISRTPEVTCVVVDVSHEDPEVKFNWYVDGVEVHNAKTKPREEQYNSTYRVVSVLTVLHQDWLNGKEYKCAVSNKALPAPIEKTISKAKGQPREPQVYTLPPSREEMTKNQVSLTCLVKGFYPSDIAVEWESNGQPENNYKTTPPVLDSDGSFFLYSKLTVDKSRWQQGNVFSCSVMHEALHNHYTQKSLSLSPGGGGGSGGGGSDIVMTQSPAFLSVTPGEKVTITCRASQTISDYLHWYQQKPDQAPKLLIKYASQSISGIPSRFSGSGSGTDFTFTISSLEAEDAATYYCQDGHSWPPTFGQGTKLEIKGSTSGSGKPGSGEGSTKGQVQLVQSGAEVKKPGASVKLSCKASGYTFSSYWMHWVRQAPGQGLEWIGEINPGNGHTNYNEKFKSRVTMTRDTSTSTAYMELSSLRSEDTAVYYCARSFKTARAFAYWGQGTLVTVSS
notes: as for B1
- Kd [1]: 105 nM
- koff [1]: 0.000676 s⁻¹
- kon [1]: 6430 M⁻¹ s⁻¹
- Kd [2]: 1.58 nM
- koff [2]: 0.00158 s⁻¹
- kon [2]: 1e+06 M⁻¹ s⁻¹

B3: bispecific epitope binding protein S04 (bispecific antibody)
chain: DIVMTQSPAFLSVTPGEKVTITCRASQTISDYLHWYQQKPDQAPKLLIKYASQSISGIPSRFSGSGSGTDFTFTISSLEAEDAATYYCQDGHSWPPTFGQGTKLEIKGSTSGSGKPGSGEGSTKGQVQLVQSGAEVKKPGASVKLSCKASGYTFSSYWMHWVRQAPGQGLEWIGEINPGNGHTNYNEKFKSRVTMTRDTSTSTAYMELSSLRSEDTAVYYCARSFKTARAFAYWGQGTLVTVSSASGGGGSGGGGSDKTHTCPPCPAPEAAGGPSVFLFPPKPKDTLMISRTPEVTCVVVDVSHEDPEVKFNWYVDGVEVHNAKTKPREEQYNSTYRVVSVLTVLHQDWLNGKEYKCAVSNKALPAPIEKTISKAKGQPREPQVYTLPPSREEMTKNQVSLTCLVKGFYPSDIAVEWESNGQPENNYKTTPPVLDSDGSFFLYSKLTVDKSRWQQGNVFSCSVMHEALHNHYTQKSLSLSPGGGGGSGGGGSFLESPDRPWNAPTFSPALLLVAEGDNATFTCSFSNASESFHVVWHRESPSGQTDTLAAFPEDRSQPGQDHRFRVTRLPNGRDFHMSVVRAQRNDSGTYVCGVISLAPKIQIKESLRAELRVTERRAEVPTAHPSPSPRPAGQFQTLVVGGGGGSGGGGSGGGGSFLESPDRPWNAPTFSPALLLVAEGDNATFTCSFSNASESFHVVWHRESPSGQTDTLAAFPEDRSQPGQDHRFRVTRLPNGRDFHMSVVRAQRNDSGTYVCGVISLAPKIQIKESLRAELRVTERRAEVPTAHPSPSPRPAGQFQTLVVG
notes: as for B1
- Kd [1]: 2.87 nM
- koff [1]: 0.000662 s⁻¹
- kon [1]: 231000 M⁻¹ s⁻¹
- Kd [2]: 2.34 nM
- koff [2]: 0.0014 s⁻¹
- kon [2]: 596000 M⁻¹ s⁻¹

B4: bispecific epitope binding protein S09 (bispecific antibody)
heavy: QVQLVQSGAEVKKPGASVKLSCKASGYTFSSYWMHWVRQAPGQGLEWIGEINPGNGHTNYNEKFKSRVTMTRDTSTSTAYMELSSLRSEDTAVYYCARSFKTARAFAYWGQGTLVTVSSASTKGPSVFPLAPSSKSTSGGTAALGCLVKDYFPEPVTVSWNSGALTSGVHTFPAVLQSSGLYSLSSVVTVPSSSLGTQTYICNVNHKPSNTKVDKKVEPKSCDKTHTCPPCPAPEAAGGPSVFLFPPKPKDTLMISRTPEVTCVVVDVSHEDPEVKFNWYVDGVEVHNAKTKPREEQYNSTYRVVSVLTVLHQDWLNGKEYKCAVSNKALPAPIEKTISKAKGQPREPQVYTLPPSREEMTKNQVSLTCLVKGFYPSDIAVEWESNGQPENNYKTTPPVLDSDGSFFLYSKLTVDKSRWQQGNVFSCSVMHEALHNHYTQKSLSLSPGGGGGSGGGGSFLESPDRPWNAPTFSPALLLVAEGDNATFTCSFSNASESFHVVWHRESPSGQTDTLAAFPEDRSQPGQDHRFRVTRLPNGRDFHMSVVRAQRNDSGTYVCGVISLAPKIQIKESLRAELRVTERRAEVPTAHPSPSPRPAGQFQTLVVG
light: DIVMTQSPAFLSVTPGEKVTITCRASQTISDYLHWYQQKPDQAPKLLIKYASQSISGIPSRFSGSGSGTDFTFTISSLEAEDAATYYCQDGHSWPPTFGQGTKLEIKRTVAAPSVFIFPPSDEQLKSGTASVVCLLNNFYPREAKVQWKVDNALQSGNSQESVTEQDSKDSTYSLSSTLTLSKADYEKHKVYACEVTHQGLSSPVTKSFNRGEC
notes: engineered IgG1 Fc; carries euPD-1
- Kd [1]: 2.17 nM
- koff [1]: 0.000568 s⁻¹
- kon [1]: 261000 M⁻¹ s⁻¹
- Kd [2]: 6.26 nM
- koff [2]: 0.00131 s⁻¹
- kon [2]: 209000 M⁻¹ s⁻¹

B5: bispecific epitope binding protein S08 (bispecific antibody)
chain: FLESPDRPWNAPTFSPALLLVAEGDNATFTCSFSNASESFHVVWHRESPSGQTDTLAAFPEDRSQPGQDHRFRVTRLPNGRDFHMSVVRAQRNDSGTYVCGVISLAPKIQIKESLRAELRVTERRAEVPTAHPSPSPRPAGQFQTLVVGGGGGSGGGGSGGGGSFLESPDRPWNAPTFSPALLLVAEGDNATFTCSFSNASESFHVVWHRESPSGQTDTLAAFPEDRSQPGQDHRFRVTRLPNGRDFHMSVVRAQRNDSGTYVCGVISLAPKIQIKESLRAELRVTERRAEVPTAHPSPSPRPAGQFQTLVVGASGGGGSGGGGSDKTHTCPPCPAPEAAGGPSVFLFPPKPKDTLMISRTPEVTCVVVDVSHEDPEVKFNWYVDGVEVHNAKTKPREEQYNSTYRVVSVLTVLHQDWLNGKEYKCAVSNKALPAPIEKTISKAKGQPREPQVYTLPPSREEMTKNQVSLTCLVKGFYPSDIAVEWESNGQPENNYKTTPPVLDSDGSFFLYSKLTVDKSRWQQGNVFSCSVMHEALHNHYTQKSLSLSPGGGGGSGGGGSDIVMTQSPAFLSVTPGEKVTITCRASQTISDYLHWYQQKPDQAPKLLIKYASQSISGIPSRFSGSGSGTDFTFTISSLEAEDAATYYCQDGHSWPPTFGQGTKLEIKGSTSGSGKPGSGEGSTKGQVQLVQSGAEVKKPGASVKLSCKASGYTFSSYWMHWVRQAPGQGLEWIGEINPGNGHTNYNEKFKSRVTMTRDTSTSTAYMELSSLRSEDTAVYYCARSFKTARAFAYWGQGTLVTVSS
notes: as for B1
- Kd [1]: 6.83 nM
- koff [1]: 0.000764 s⁻¹
- kon [1]: 112000 M⁻¹ s⁻¹
- Kd [2]: 2.22 nM
- koff [2]: 0.00186 s⁻¹
- kon [2]: 837000 M⁻¹ s⁻¹

B6: bispecific epitope binding protein S01 (bispecific antibody)
chain: QVQLVQSGAEVKKPGASVKLSCKASGYTFSSYWMHWVRQAPGQGLEWIGEINPGNGHTNYNEKFKSRVTMTRDTSTSTAYMELSSLRSEDTAVYYCARSFKTARAFAYWGQGTLVTVSSGSTSGSGKPGSGEGSTKGDIVMTQSPAFLSVTPGEKVTITCRASQTISDYLHWYQQKPDQAPKLLIKYASQSISGIPSRFSGSGSGTDFTFTISSLEAEDAATYYCQDGHSWPPTFGQGTKLEIKASGGGGSGGGGSDKTHTCPPCPAPEAAGGPSVFLFPPKPKDTLMISRTPEVTCVVVDVSHEDPEVKFNWYVDGVEVHNAKTKPREEQYNSTYRVVSVLTVLHQDWLNGKEYKCAVSNKALPAPIEKTISKAKGQPREPQVYTLPPSREEMTKNQVSLTCLVKGFYPSDIAVEWESNGQPENNYKTTPPVLDSDGSFFLYSKLTVDKSRWQQGNVFSCSVMHEALHNHYTQKSLSLSPGGGGGSGGGGSFLESPDRPWNAPTFSPALLLVAEGDNATFTCSFSNASESFHVVWHRESPSGQTDTLAAFPEDRSQPGQDHRFRVTRLPNGRDFHMSVVRAQRNDSGTYVCGVISLAPKIQIKESLRAELRVTERRAEVPTAHPSPSPRPAGQFQTLVVG
notes: Anti-4-1BB 94kvt scFv x euPD-1 with hinge and engineered IgG1 Fc (L234A, L235A, K322A, D356E, L358M)
- Kd [1]: 3.34 nM
- koff [1]: 0.000537 s⁻¹
- kon [1]: 161000 M⁻¹ s⁻¹
- Kd [2]: 5.73 nM
- koff [2]: 0.00132 s⁻¹
- kon [2]: 230000 M⁻¹ s⁻¹

B7: bispecific epitope binding protein S05 (bispecific antibody)
chain: FLESPDRPWNAPTFSPALLLVAEGDNATFTCSFSNASESFHVVWHRESPSGQTDTLAAFPEDRSQPGQDHRFRVTRLPNGRDFHMSVVRAQRNDSGTYVCGVISLAPKIQIKESLRAELRVTERRAEVPTAHPSPSPRPAGQFQTLVVGASGGGGSGGGGSDKTHTCPPCPAPEAAGGPSVFLFPPKPKDTLMISRTPEVTCVVVDVSHEDPEVKFNWYVDGVEVHNAKTKPREEQYNSTYRVVSVLTVLHQDWLNGKEYKCAVSNKALPAPIEKTISKAKGQPREPQVYTLPPSREEMTKNQVSLTCLVKGFYPSDIAVEWESNGQPENNYKTTPPVLDSDGSFFLYSKLTVDKSRWQQGNVFSCSVMHEALHNHYTQKSLSLSPGGGGGSGGGGSQVQLVQSGAEVKKPGASVKLSCKASGYTFSSYWMHWVRQAPGQGLEWIGEINPGNGHTNYNEKFKSRVTMTRDTSTSTAYMELSSLRSEDTAVYYCARSFKTARAFAYWGQGTLVTVSSGSTSGSGKPGSGEGSTKGDIVMTQSPAFLSVTPGEKVTITCRASQTISDYLHWYQQKPDQAPKLLIKYASQSISGIPSRFSGSGSGTDFTFTISSLEAEDAATYYCQDGHSWPPTFGQGTKLEIK
notes: as for B1
- Kd [1]: 3.66 nM
- koff [1]: 0.000466 s⁻¹
- kon [1]: 127000 M⁻¹ s⁻¹
- Kd [2]: 1.16 nM
- koff [2]: 0.00169 s⁻¹
- kon [2]: 1.46e+06 M⁻¹ s⁻¹
